Test results from PMC12112590.
Where a chain is given by its changes, count along the chain named. One block for each binder: values may come before it.

Target: S. cerevisiae RNA Polymerase II (Pol II) (S. cerevisiae) (UniProt P04050)

B1: full-length hNDF mutant MT1 (natural protein)
chain: MAAVSLRLGDLVWGKLGRYPPWPGKIVNPPKDLKKPRGKKCFFVKFFGTEDHAWIKVEQLKPYHAHKEEMIKINKGKRFQQAVDAVEEFLRRAKGKDQTSSHNSSDDKNRRNSSEERSRPNSGDEKRKLSLSEGKVKKNMAAAAARVSSGSSERGSKSPLKRAQEQSPRKRGRPPKDEKDLTIPESSTVKGMMAGPMAAFKWQPTASEPVKDADPHFHHFLLSQTEKPAVCYQAITKKLKICEEETGSTSIQAADSTAVNGSITPTDKKIGFLGLGLMGSGIVSNLLKMGHTVTVWNRTAEKCDLFIQEGARLGRTPAEVVSTCDITFACVSDPKAAKDLVLGPSGVLQGIRPGKCYVDMSTVDADTVTELAQVIVSRGGRFLEAPVSGNQQLSNDGMLVILAAGDRGLYEDCSSCFQAMGKTSFFLGEVGNAAKMMLIVNMVQGSFMATIAEGLTLAQVTGQSQQTLLDILNQGQLASIFLDQKCQNILQGNFKPDFYLKYIQKDLRLAIALGDAVNHPTPMAAAANEVYKRAKALDQSDNDMSAVYRAYIH
transcription stimulation with calf thymus DNA and yeast Pol II ([α-32P]CTP incorporation), against wild-type hNDF: 50 % reduction

B2: full-length hNDF mutant MT3 (natural protein)
chain: B1 chain with A141G, A142E, A143G, A144K, A145K, S151A, S152A, E153A, R154A, G155A
transcription stimulation with calf thymus DNA and yeast Pol II ([α-32P]CTP incorporation), against wild-type hNDF: 50 % reduction

The next lines start with the values.

transcription stimulation with calf thymus DNA and yeast Pol II ([α-32P]CTP incorporation), against wild-type hNDF: 50 % reduction
B3: full-length hNDF mutant MT4 (residues 156–160) (natural protein)
chain: B1 chain with A141G, A142E, A143G, A144K, A145K, S156A, K157A, S158A, P159A, L160A

transcription stimulation with calf thymus DNA and yeast Pol II ([α-32P]CTP incorporation), against wild-type hNDF: 50 % reduction
B4: full-length hNDF mutant MT2 (residues 146–150) (natural protein)
chain: B1 chain with A141G, A142E, A143G, A144K, A145K, R146A, V147A, S148A, S149A, G150A
